What was measured:
[1] = molecular target: Xpo1 (full-length, 1–1071) (S. cerevisiae) (UniProt P30822)
[2] = molecular target: Xpo1 (full-length, 1–1071) (S. cerevisiae) (UniProt P30822); remark: listed apart in the source
[3] = molecular target: Xpo1 (full-length, 1–1071) (S. cerevisiae) (UniProt P30822); remark: listed apart in the source

Row | Substance | RNA-stimulated ATPase activity of Ded1 (500 nM, 320 μg/mL whole-cell yeast RNA) with Xpo1 0.55–11 μM and Ran[GTP]Q71L 0.65–13 μM added together; fold reduction [1] [fold] | RNA duplex unwinding (helicase) by Ded1 (50 nM) with Xpo1 (550 nM) and Ran[GTP]Q71L (650 nM); fold inhibition of k unwind [2] [fold] | Michaelis-Menten analysis of Ded1 ATPase (500 nM) against whole cell yeast RNA, with ~10 fold molar excess of Xpo1 and Ran[GTP]Q71L; fold change of the apparent KM for RNA [3] [fold] | RNA duplex unwinding (helicase) by Ded1 I13A (50 nM) with Xpo1 (550 nM) and Ran[GTP]Q71L (650 nM); fold inhibition of k unwind [2] [fold]
1 | Ded1 (full-length, 1–604) (from UniProt P06634 1-604) (natural protein) | 2 | 5 | 50 | 
2 | Ded1_(I13A) (full-length Ded1, I13A) (from UniProt P06634 1-604) (natural protein) |  |  |  | < 2
